In patent publication US20180094075A1 (Pfizer, published 2018):
Values belong to the molecule of their own block, whether it stands above or below them.

Columns and labels:
[1] = target: human PTK7 expressed on cells (cancer cell lines with endogenous PTK7; HEK293T-PTK7 over-expressing cells) (human) (UniProt Q13308); experiment: flow cytometry, H661 cells, 10 µg/mL
[2] = target: human PTK7 expressed on cells (cancer cell lines with endogenous PTK7; HEK293T-PTK7 over-expressing cells) (human) (UniProt Q13308); experiment: flow cytometry, U2OS cells, 10 µg/mL
[3] = target: human PTK7 expressed on cells (cancer cell lines with endogenous PTK7; HEK293T-PTK7 over-expressing cells) (human) (UniProt Q13308); experiment: flow cytometry, H446 cells, 10 µg/mL
[4] = target: T1, human PTK7 expressed on cells (cancer cell lines with endogenous PTK7; HEK293T-PTK7 over-expressing cells) (human, UniProt Q13308 31-1070); experiment: cell-based or functional assay
T1 sequence: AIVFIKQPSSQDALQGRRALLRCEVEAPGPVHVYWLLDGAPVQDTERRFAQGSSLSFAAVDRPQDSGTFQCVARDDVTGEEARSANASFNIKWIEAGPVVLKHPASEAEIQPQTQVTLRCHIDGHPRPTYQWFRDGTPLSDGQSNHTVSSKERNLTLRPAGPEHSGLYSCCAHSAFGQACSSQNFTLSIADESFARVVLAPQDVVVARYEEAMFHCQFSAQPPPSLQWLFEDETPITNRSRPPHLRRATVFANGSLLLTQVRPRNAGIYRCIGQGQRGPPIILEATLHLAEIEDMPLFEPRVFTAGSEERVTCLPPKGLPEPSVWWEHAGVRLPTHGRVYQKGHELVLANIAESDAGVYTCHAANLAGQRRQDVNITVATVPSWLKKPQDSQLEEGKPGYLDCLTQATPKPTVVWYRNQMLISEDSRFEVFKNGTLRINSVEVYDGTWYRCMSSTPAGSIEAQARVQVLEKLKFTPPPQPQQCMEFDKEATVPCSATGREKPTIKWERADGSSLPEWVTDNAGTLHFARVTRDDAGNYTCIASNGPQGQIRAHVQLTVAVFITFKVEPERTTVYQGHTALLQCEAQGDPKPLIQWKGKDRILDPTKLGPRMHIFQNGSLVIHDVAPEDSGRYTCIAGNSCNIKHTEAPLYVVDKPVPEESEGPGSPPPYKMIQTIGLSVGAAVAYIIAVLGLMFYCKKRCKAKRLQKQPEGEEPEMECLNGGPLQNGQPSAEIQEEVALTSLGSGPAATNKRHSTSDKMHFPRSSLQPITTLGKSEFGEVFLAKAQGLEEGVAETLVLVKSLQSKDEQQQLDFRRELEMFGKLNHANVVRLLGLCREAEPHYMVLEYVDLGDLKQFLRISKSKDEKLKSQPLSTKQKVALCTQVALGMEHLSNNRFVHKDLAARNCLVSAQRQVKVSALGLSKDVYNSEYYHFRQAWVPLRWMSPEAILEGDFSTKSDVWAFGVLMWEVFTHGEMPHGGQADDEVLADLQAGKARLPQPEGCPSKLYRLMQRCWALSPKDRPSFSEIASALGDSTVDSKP

MFI [1]: 4.2
MFI [2]: 5.3
MFI [3]: 11
Molecule: Control mAb (Table 7) (antibody)

B1: hu23 (humanized anti-PTK7 antibody) (antibody, V domains shown)
VH: QITLKESGPTLVKPTQTLTLTCTFSGFSLSTSNMGVGWIRQPPGKALEWLAHIWWDDDKYYSPSLKSRLTITKDTSKNQVVLTMTNMDPVDTATYYCVRSNYGYAWFAYWGQGTLVTVSS
VL: DIQMTQSPSSLSASVGDRVTITCKASQDIYPYLNWFQQKPGKAPKTLIYRTNRLLDGVPSRFSGSGSGTDFTFTISSLQPEDIATYYCLQYDEFPLTFGAGTKLEIKR
IC50 of cell viability (MTS), antibody + saporin-conjugated anti-human Fab (Fab-ZAP), DMS114 cells [4]: 0.0103 µg/mL
IC50 of cell viability (MTS), antibody + saporin-conjugated anti-human Fab (Fab-ZAP), H446 cells [4]: 0.0447 µg/mL
